Source: patent US20160312212A1 (ROCHE SEQUENCING SOLUTIONS, published 2016)
Where no end group is shown, it is not given here. The star is where a group is joined. Biotin = O=C1N[C@H]2[C@H](CS[C@H]2CCCCC(=O)*)N1

Target: Thrombin (UniProt P00734 328-622)
Assay: SPR (Biacore X100), multiple-cycle kinetics; biotinylated peptide on streptavidin chip, thrombin 0 to 50 nM as analyte
Procedure: Two peptides were further prepared (synthesized and purified by Peptide 2.0) with the following sequences: a) Biotin—[…] GCG (SEQ ID NO:367) and b) Biotin—[…] (SEQ ID NO:368). The binding affinities of each peptide towards thrombin were tested on a Biacore X100 system.
In brief, 50 ul of 100 ug/ml of streptavidin (in 10 mM NaAc, 0.1 mM EDTA, 1 mM NaCl, 1 mM DTT pH 4.6) was immobilized onto a sensor chip CM5 that was pre-activated with NHS/EDC at a flow rate of 5 μl/min. After ethanolamine deactivation, biotinylated peptides (10 ng/ml) were injected and captured. Following the standard protocol for multiple-cycle kinetics, a series of injections of thrombin were then performed at 0 nM, 3.125 nM, 6.25 nM, 12.5 nM, 25 nM and 50 nM. After each injection, the sensor surface was regenerated for 2 min with 10 mM Glycine-HCl, pH 1.7 (from GE). The sensogram was recorded (see FIG. 5) and kinetic constants were derived by global fitting to a 1:1 Langmuir binding model using the BIAcore X100 Evaluation Software.

B1: Biotin-GCTSVHQETKKYQSRDPGRLIFQSSYTYNYEHVDVWGCG (designed binder)
peptide: Biotin-GCTSVHQETKKYQSRDPGRLIFQSSYTYNYEHVDVWGCG
modifications: cysteine pairing not given here
notes: Synthetic peptide (Peptide 2.0), captured on a streptavidin CM5 chip; also called peptide a)
fold change in KD against the linear peptide without cow antibody scaffold sequences (SEQ ID NO:368): > 40 fold
